According to publication PMC5864845, “Engineering enhanced cellobiohydrolase activity” (Nature Communications, 2018):

Substrate: [H][C@@]1(O[C@H]2[C@H](O)[C@@H](O)[C@H](Oc3ccc([N+](=O)[O-])cc3)O[C@@H]2CO)O[C@H](CO)[C@H](O)[C@H](O)[C@H]1O
Test: p-nitrophenol release, A405, Michaelis-Menten fit
Assay type: biochemical, Trichoderma reesei
Settings: 20 mM acetate pH 5.0, 100 mM NaCl, 40 °C
Protocol: p-nitrophenol release, A405, Michaelis-Menten fit on […] | Vmax and Km were determined using p-nitrophenyl-β-D-lactopyranoside (pNPL, Sigma) as substrate

B1: TrCel7A (Trichoderma reesei) (protein)
chain: QSACTLQSETHPPLTWQKCSSGGTCTQQTGSVVIDANWRWTHATNSSTNCYDGNTWSSTLCPDNETCAKNCCLDGAAYASTYGVTTSGNSLSIGFVTQSAQKNVGARLYLMASDTTYQEFTLLGNEFSFDVDVSQLPCGLNGALYFVSMDADGGVSKYPTNTAGAKYGTGYCDSQCPRDLKFINGQANVEGWEPSSNNANTGIGGHGSCCSEMDIWEANSISEALTPHPCTTVGQEICEGDGCGGTYSDNRYGGTCDPDGCDWNPYRLGNTSFYGPGSSFTLDTTKKLTVVTQFETSGAINRYYVQNGVTFQQPNAELGSYSGNELNDDYCTAEEAEFGGSSFSDKGGLTQFKKATSGGMVLVMSLWDDYYANMLWLDSTYPTNETSSTPGAVRGSCSTSSGVPAQVESQSPNAKVTFSNIKFGPIGSTGNPSGGNPPGGNRGTTTTRRPATTTGSSPGPTQSHYGQCGGIGYSGPTVCASGTTCQVLNPYYSQCL
notes: full length wild type (catalytic domain, linker, CBM1), secreted and purified from Trichoderma reesei AST1116 (QM6A, cbh1 deletion) host, pTrEno
  Km: 2195 ± 880 µM
  kcat: 14.26 ± 1.05 min⁻¹
